Data taken from patent US20020172962, “Methods of producing nucleic acid ligands” (GILEAD SCIENCES, INC., published 2002).

Tests used:
HIV-1 Rev [1] = molecular target: T1, HIV-1 Rev (HIV-1, UniProt P04618 P04618:1-116); experiment: filter; high-affinity ligand; modification interference; 200 mM KOAc, 50 mM Tris pH 7.7, 10 mM DTT, 37 C; conditions: tags: American Biotechnologies, Inc
Procedure: (§1) Chemical Modification of RNA. Chemical modification techniques for nucleic acids are described in general in Ehresmann et al. (1987) Nucleic Acids Research 15:9109-9128. Modification of RNA under native conditions was performed in 200 mM KOAc, 50 mM Tris-HCl pH 7.7, 1 mM EDTA at 37° C. Modification under denaturing conditions was done in 7 M urea, 50 mM Tris-HCl pH 7.7 at 90° C. Concentration of modifying agents and incubation times are as follows: ethylnitrosourea (ENU)-1/5 dilution v/v of ethanol saturated with ENU, native 1-3 hours, denaturing 5 minutes; dimethyl sulfate (DMS)-1/750-fold dilution v/v, native 8 minutes, denaturing 1 minute; kethoxal- 0.5 mg/ml, native 5 minutes, denaturing 2 minutes; carbodiimide (CMCT)-10 mg/ml, native 30 minutes, denaturing 3 minutes; diethyl pyrocarbonate (DEPC)-1/10 dilution v/v, native 10 minutes, denaturing 1 minute.
Modification interference of Rev binding. RNAs chemically modified under denaturing conditions were selected for Rev binding through filter partitioning. […]
The extent of modification interference was determined by densitometric scanning of autoradiographs using LKB (ENU) and Molecular Dynamics (DMS, kethoxal, CMCT, and DEPC) laser densitometers. […]

HIV-1 Rev [2] = molecular target: T1, HIV-1 Rev; experiment: footprint; 200 mM KOAc, 50 mM Tris pH 7.7, 1 mM DTT, 5 mM MgCl2; 500 nM Rev; conditions: tags: American Biotechnologies, Inc
Procedure: as §1
Modification of RNA in the presence of Rev. “Footprinting” of the Rev ligand, modification of the RNA ligand in the presence of Rev protein, was performed in 200 mM KOAc, 50 mM Tris-Cl pH 7.7, 1 mM DTT, and 5 mM MgCl₂. Concentration of protein was 500 nanomolar, and approximately in 3-fold molar excess over RNA concentration. Modification with protein present was attempted with all modifying agents listed above except ethylnitrosourea (ENU).

[3] = molecular target: T2, HIV-1 reverse transcriptase (HIV-RT) (HIV-1, UniProt P03366;P03366 P03366:600-1159,P03366:600-1039); experiment: filter; selected by HIV-RT from mixed 2'-OMe/2'-OH population
[4] = molecular target: T2, HIV-1 reverse transcriptase (HIV-RT); experiment: footprint; chemical protection and modification interference
Text: Selection of modified RNAs by HIV-RT. Binding reactions were as above except that rather than to vary the amount of HIV-RT added to a reaction, the volume of reaction was increased in order to lower concentration. RNAs that were modified under denaturing conditions were selected at concentrations of 20, 4 and 0.8 nanomolar HIV-RT (in volumes of 1, 5 and 25 mls of binding buffer.) The amount of RNA added to each reaction was equivalent for each experiment (approximately 1-5 picomoles). RNA was eluted from filters as described in Tuerk et al. (1990) J. Mol. Biol. 213:749; Tuerk and Gold (1990) Science 249:505-510, and assayed for modified positions. In each experiment a control was included in which unselected RNA was spotted on a filter, eluted and assayed for modified positions in parallel with the selected RNAs. Determinations of variation in chemical modification for selected versus unselected RNAs were made by visual inspection of exposed films of electrophoresed assay products with the following exceptions. The extent of modification interference by ENU was determined by densitometric scanning of films using an LKB laser densitomer. An index of modification interference (M.I.) at each position was calculated as follows:
Assay of chemical modification. […]

T1 sequence (P04618 whole entry, one chain of several): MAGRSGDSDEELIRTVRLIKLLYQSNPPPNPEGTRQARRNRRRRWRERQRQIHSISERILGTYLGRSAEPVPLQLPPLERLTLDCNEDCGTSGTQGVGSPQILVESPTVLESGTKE

B1: Rev ligand 6a (ssRNA)
RNA: GGGUGCAUUGAGAAACACGUUUGUGGACUCUGUAUCU
B1: binds (HIV-1 Rev [1]).

B2: extended Rev ligand 6a (ssRNA)
RNA: GGGUGCAUUGAGAAACACGUUUGUGGACUCUGUAUCUAUGAAAGAAUUUUAUAUCUCUAUUGAAAC
B2: binds (HIV-1 Rev [2]).

B3: 2'-methoxy mixed ligand B oligonucleotide (mixed)
RNA: AAAAAUCCGAAGUGCAACGGGAAAAUGCACU
modifications: AAAAA 5' tail deoxy; UCCGA and ACGGGAAAA mixed 2'-OH/2'-OMe; AGUGCA and UGCACU 2'-OMe
B3: binds [3].

B4: lengthened ligand B (ssRNA)
RNA: GGUCCGAAGUGCAACGGGAAAAUGCACUAUGAAAGAAUUUUAUAUCUCUAUUGAAAC
B4: binds [4].
